# US20050064507
# How the values were obtained:
# [1] = tested on: T1, SMARCA5 peptide MAQIERGEARIQRRISIKKA (SEQ ID NO:166)
# T1 sequence: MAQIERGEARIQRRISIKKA
# [2] = tested on: T2, LIMK-2 peptide LRRRSLRRSNSISKSPGP (SEQ ID NO:121)
# T2 sequence: LRRRSLRRSNSISKSPGP
# [3] = tested on: T3, CREB peptide VTDSQKRREILSRRPSYPKI (SEQ ID NO:141)
# T3 sequence: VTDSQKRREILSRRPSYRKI
# [4] = tested on: T4, peptide AARKKRISVKKKQEQ (SEQ ID NO:8)
# T4 sequence: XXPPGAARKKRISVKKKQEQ
# [5] = tested on: T5, peptide NRKKKRTSFKRKA (SEQ ID NO:3)
# T5 sequence: XXPPGNRKKKRTSFKRKA
# [6] = tested on: T6, SPTBN4 peptide EGGDRRASGRRK (SEQ ID NO:110)
# T6 sequence: EGGDRRASGRRK
# [7] = tested on: T7, peptide KKRFSFKKSFKLSGFSFKKN (SEQ ID NO:18)
# T7 sequence: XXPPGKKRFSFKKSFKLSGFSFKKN
# [8] = tested on: T8, peptide IDYYKKTSNGRLPVK (SEQ ID NO:74)
# T8 sequence: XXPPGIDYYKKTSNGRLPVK
# [9] = tested on: T9, cytohesin-2 peptide VDPFYEMLAARKKRISVKKK (SEQ ID NO:150)
# T9 sequence: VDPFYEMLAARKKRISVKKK
# [10] = tested on: T10, peptide LLKKRDSFRTPRDSKLE (SEQ ID NO:22)
# T10 sequence: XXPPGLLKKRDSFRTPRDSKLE
# [11] = tested on: T11, GABA A receptor beta 2 peptide ERHVAQKKSRLRRRASQLKI (SEQ ID NO:142)
# T11 sequence: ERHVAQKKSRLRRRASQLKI
# [12] = tested on: T12, peptide QRQERIFSKRRGQDF (SEQ ID NO:63)
# T12 sequence: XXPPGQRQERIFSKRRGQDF
# [13] = tested on: T13, PPP1R14A peptide QKRHARVTVKYDRRE (SEQ ID NO:107)
# T13 sequence: QKRHARVTVKYDRRE
# [14] = tested on: T14, peptide KLAVGRHSFSRRSGV (SEQ ID NO:21)
# T14 sequence: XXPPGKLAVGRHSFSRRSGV
# [15] = tested on: T15, CHRM1 peptide RKIPKRPGSVHRTPSRQ (SEQ ID NO:83)
# T15 sequence: RKIPKRPGSVHRTPSRQ
# [16] = tested on: T16, peptide LTDPKEDPIYDEPEGLAPVPG (SEQ ID NO:72)
# T16 sequence: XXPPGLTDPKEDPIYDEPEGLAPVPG
# [17] = tested on: T17, NR4A3 peptide KEVVRTDSLKGRRGR (SEQ ID NO:109)
# T17 sequence: KEVVRTDSLKGRRGR
# [18] = tested on: T18, p164-RhoGEF peptide PRLIRRGSKKRPAR (SEQ ID NO:124)
# T18 sequence: PRLIRRGSKKRPAR
# [19] = tested on: T19, beta adducin peptide PSKSPSKKKKKFRTPSFLKK (SEQ ID NO:137)
# T19 sequence: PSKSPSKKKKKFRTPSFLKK
# [20] = tested on: T20, peptide ENLRKVTTDKKSLAY (SEQ ID NO:54)
# T20 sequence: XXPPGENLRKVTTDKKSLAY
# [21] = tested on: T21, PARIS1 peptide EYLERRASRRRAV (SEQ ID NO:130)
# T21 sequence: EYLERRASRRRAV
# [22] = tested on: T22, peptide PVNKRSKYTMMK (SEQ ID NO:59)
# T22 sequence: XXPPGPVNKRSKYTMMK
# [23] = tested on: T23, MAP3K14 peptide WKGKRRSKARKKRK (SEQ ID NO:100)
# T23 sequence: WKGKRRSKARKKRK
# [24] = tested on: T24, peptide EGGDRRASGRRK (SEQ ID NO:34)
# T24 sequence: XXPPGEGGDRRASGRRK
# [25] = tested on: T25, peptide DLLGKKVSTKTLSEDD (SEQ ID NO:51)
# T25 sequence: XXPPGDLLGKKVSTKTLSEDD
# [26] = tested on: T26, peptide KKKKKRFSFKKSFKL (SEQ ID NO:12)
# T26 sequence: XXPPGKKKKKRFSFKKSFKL
# [27] = tested on: T27, MLK3 peptide QQVDRERPHVRRRRGTFKRS (SEQ ID NO:128)
# T27 sequence: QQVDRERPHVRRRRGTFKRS
# [28] = tested on: T28, peptide VDNILKKSNKKLEEL (SEQ ID NO:61)
# T28 sequence: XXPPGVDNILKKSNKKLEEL
# [29] = tested on: T29, calcium channel, voltage-dependent, L type, alpha peptide RDIRQSPKRGFLRSASLGRR (SEQ ID NO:147)
# T29 sequence: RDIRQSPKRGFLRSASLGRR
# [30] = tested on: T30, peptide KKKKRASFKRKSSKKG (SEQ ID NO:2)
# T30 sequence: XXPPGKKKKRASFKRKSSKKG
# [31] = tested on: T31, dag kinase zeta peptide RPQNTLKASKKKKRASFKRK (SEQ ID NO:118)
# T31 sequence: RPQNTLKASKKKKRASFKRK
# [32] = tested on: T32, peptide QPEGLRSLKKPDRKKR (SEQ ID NO:42)
# T32 sequence: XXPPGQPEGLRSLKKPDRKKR
# [33] = tested on: T33, NIK peptide TEGKMARVAWKGKRRSKARK (SEQ ID NO:164)
# T33 sequence: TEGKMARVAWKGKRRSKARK
# [34] = tested on: T34, peptide AINSRETMFHKERFK (SEQ ID NO:67)
# T34 sequence: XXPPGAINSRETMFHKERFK
# [35] = tested on: T35, peptide GQAWGRQSPRRLED (SEQ ID NO:46)
# T35 sequence: XXPPGGQAWGRQSPRRLED
# [36] = tested on: T36, peptide RKKRKKKSSKSLAHAGVALA (SEQ ID NO:31)
# T36 sequence: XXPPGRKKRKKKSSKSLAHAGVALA
# [37] = tested on: T37, peptide EEAEHKATKARLADK (SEQ ID NO:75)
# T37 sequence: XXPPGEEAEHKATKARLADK
# [38] = tested on: T38, ARHGAP6 peptide DGQKRKKSLRKKLD (SEQ ID NO:92)
# T38 sequence: DGQKRKKSLRKKLD
# [39] = tested on: T39, ribosomal protein S6 peptide AKRRRLSSLRASTSK (SEQ ID NO:120)
# T39 sequence: AKRRRLSSLRASTSK
substance,measurement,setting,value
PKC-delta,"in vitro phosphorylation, 1 uM peptide (% of best substrate)",[1],13
same,"in vitro phosphorylation, 10 uM peptide (% of best substrate)",[1],29
same,"in vitro phosphorylation, 1 uM peptide (% of best substrate)",[2],80
same,"in vitro phosphorylation, 10 uM peptide (% of best substrate)",[2],53
same,"in vitro phosphorylation, 1 uM peptide (% of best substrate)",[3],43
same,"in vitro phosphorylation, 10 uM peptide (% of best substrate)",[3],21
same,in vitro phosphorylation (% of best substrate),[4],35
same,in vitro phosphorylation (% of best substrate),[5],66
same,in vitro phosphorylation (% of best substrate),[6],5
same,in vitro phosphorylation (% of best substrate),[7],16
same,in vitro phosphorylation (% of best substrate),[8],0
same,"in vitro phosphorylation, 1 uM peptide (% of best substrate)",[9],34
same,"in vitro phosphorylation, 10 uM peptide (% of best substrate)",[9],20
same,in vitro phosphorylation (% of best substrate),[10],12
same,"in vitro phosphorylation, 1 uM peptide (% of best substrate)",[11],30
same,"in vitro phosphorylation, 10 uM peptide (% of best substrate)",[11],36
same,in vitro phosphorylation (% of best substrate),[12],1
same,in vitro phosphorylation (% of best substrate),[13],10
same,in vitro phosphorylation (% of best substrate),[14],12
same,in vitro phosphorylation (% of best substrate),[15],38
same,in vitro phosphorylation (% of best substrate),[16],0
same,in vitro phosphorylation (% of best substrate),[17],7
same,"in vitro phosphorylation, 1 uM peptide (% of best substrate)",[18],69
same,"in vitro phosphorylation, 10 uM peptide (% of best substrate)",[18],43
same,"in vitro phosphorylation, 1 uM peptide (% of best substrate)",[19],38
same,"in vitro phosphorylation, 10 uM peptide (% of best substrate)",[19],16
same,in vitro phosphorylation (% of best substrate),[20],2
same,"in vitro phosphorylation, 1 uM peptide (% of best substrate)",[21],46
same,"in vitro phosphorylation, 10 uM peptide (% of best substrate)",[21],20
same,in vitro phosphorylation (% of best substrate),[22],1
same,in vitro phosphorylation (% of best substrate),[23],22
same,in vitro phosphorylation (% of best substrate),[24],5
same,in vitro phosphorylation (% of best substrate),[25],2
same,in vitro phosphorylation (% of best substrate),[26],24
same,"in vitro phosphorylation, 1 uM peptide (% of best substrate)",[27],46
same,"in vitro phosphorylation, 10 uM peptide (% of best substrate)",[27],57
same,in vitro phosphorylation (% of best substrate),[28],1
same,"in vitro phosphorylation, 1 uM peptide (% of best substrate)",[29],27
same,"in vitro phosphorylation, 10 uM peptide (% of best substrate)",[29],13
same,in vitro phosphorylation (% of best substrate),[30],76
same,"in vitro phosphorylation, 1 uM peptide (% of best substrate)",[31],73
same,"in vitro phosphorylation, 10 uM peptide (% of best substrate)",[31],60
same,in vitro phosphorylation (% of best substrate),[32],3
same,"in vitro phosphorylation, 1 uM peptide (% of best substrate)",[33],18
same,"in vitro phosphorylation, 10 uM peptide (% of best substrate)",[33],26
same,in vitro phosphorylation (% of best substrate),[34],1
same,in vitro phosphorylation (% of best substrate),[35],2
same,in vitro phosphorylation (% of best substrate),[36],> 5
same,in vitro phosphorylation (% of best substrate),[37],0
same,in vitro phosphorylation (% of best substrate),[38],17
same,"in vitro phosphorylation, 1 uM peptide (% of best substrate)",[39],64
same,"in vitro phosphorylation, 10 uM peptide (% of best substrate)",[39],32
